Source: US20240252673A1, “ANTI-TISSUE FACTOR ANTIBODY-DRUG CONJUGATES AND THEIR USE IN THE TREATMENT OF CANCER” (priority 2017, published 2024)

Tested on: subjects with locally advanced and/or metastatic cancer of various types
Experiment: Phase I/II dose-escalation study: safety and tolerability, adverse events (CTCAE v4.03) occurring up to 30 days after treatment
Type: in vivo, human
Method: A first-in-human phase I/II dose-escalating study following a 3+3 dose-escalation design was conducted in order to test the safety of tisotumab vedotin in 27 subjects with locally advanced and/or metastatic cancer of various types including cervical cancer (FIG. 2). Tisotumab vedotin was administered by intravenous infusion at doses ranging from 0.3 mg/kg to 2.2 mg/kg on day 1 of a 21-day cycle for four cycles (i.e., each treatment cycle was 3 weeks). Patients with stable disease (SD) or better at the end of four cycles had the option to continue treatment with tisotumab vedotin for eight additional cycles (FIG. 2). Tumor evaluations were performed by CT scans every six weeks. In order to qualify for SD, results of the CT scan scheduled for week six needed to be SD or better. Two CT scans were performed outside the per-protocol defined window.
Lyophilized vials containing 40 mg of tisotumab vedotin were stored in a refrigerator at 2° C. to 8° C. Tisotumab vedotin was reconstituted in 4 ml of water leading to a reconstituted solution comprising 10 mg/mL tisotumab vedotin, 30 mM histidine, 88 mM sucrose, and 165 mM D-mannitol. […] The reconstituted tisotumab vedotin was diluted into a 0.9% NaCl 100 mL infusion bag according to the dose calculated for the patient. Intravenous infusion was completed within 24 hours after the tisotumab vedotin vial had been reconstituted. A 0.2 μm in-line filter was used for the intravenous infusion. The entire 100 mL volume from the prepared infusion bag was administered. No dead volume was provided.
A primary objective of the study was to assess the safety and tolerability in a mixed population of patients with specified solid tumors. Adverse event (AE) severity was graded according to Common Terminology Criteria for Adverse Events (CTCAE) version 4.03. Secondary objectives of the study included determining the pharmacokinetic (PK) profile of tisotumab vedotin and preliminary evaluation of anti-tumor activity as assessed according to Response Evaluation Criteria in Solid Tumors [RECIST] version 1.1. Dose-limiting toxicities (DLTs) were determined during the first cycle and were defined as grade≥3 events possibly related to tisotumab vedotin. […] Tumor biopsies were required at baseline for TF expression which was assessed by immunohistochemistry utilizing tisotumab. TF staining intensity was determined using the H-scoring system.
Inclusion criteria for eligible subjects included: patients with relapsed, advanced, and/or metastatic cancer who have failed available standard therapy; and measurable disease.
Exclusion criteria included known past or current coagulation defects; ongoing major bleeding; and presence of CTCAE grade≥2 peripheral neuropathy.

tisotumab vedotin
AE leading to discontinuation (0.3 mg/kg (n = 3)): 0 n | AE leading to discontinuation (0.6 mg/kg (n = 3)): 0 n | AE leading to discontinuation (0.9 mg/kg (n = 3)): 0 n | AE with outcome of death (0.9 mg/kg (n = 3)): 0 n | Serious AE (0.9 mg/kg (n = 3)): 0 n | AE leading to discontinuation (1.2 mg/kg (n = 3)): 0 n | AE with outcome of death (1.2 mg/kg (n = 3)): 0 n | AE leading to discontinuation (1.5 mg/kg (n = 3)): 0 n | AE with outcome of death (1.5 mg/kg (n = 3)): 0 n | AE with outcome of death (1.8 mg/kg (n = 3)): 0 n | AE leading to discontinuation (2.0 mg/kg (n = 3)): 0 n | AE with outcome of death (2.0 mg/kg (n = 3)): 0 n | AE with outcome of death (2.2 mg/kg (n = 6)): 0 n | DLTs (diabetes mellitus type 2, mucositis, neutropenic fever, all grade 3) (2.2 mg/kg dose cohort, in three patients, first cycle): Three | Maximum tolerated dose (MTD) (IV, day 1 of 21-day cycle): 2.0 mg/kg | tolerability (Patient 2, cervical cancer, 1.2 mg/kg): well tolerated and no severe AEs were reported | discontinued due to AE: grade 1 pneumonitis (all 27 patients): 1 n | discontinued due to AE: grade 2 peripheral swelling and grade 3 pain in extremity (all 27 patients): one | discontinued due to AE: grade 3 Guillain-Barre syndrome (all 27 patients): 1 n | discontinued due to AE: grade 3 abdominal pain (all 27 patients): 2 n | discontinued due to AE: grade 3 diabetes mellitus (all 27 patients): 1 n | discontinued due to AE: grade 3 fatigue (all 27 patients): 1 n | grade 4 events (all 27 patients): no grade 4 events | grade≥3 treatment-related AE: abdominal pain (all 27 patients): 3 n | grade≥3 treatment-related AE: anemia (all 27 patients): 4 n | grade≥3 treatment-related AE: fatigue (all 27 patients): 4 n | grade≥3 treatment-related AE: hyponatraemia (all 27 patients): 3 n | patients experienced grade≥3 treatment-related AEs (all 27 patients): 19 patients | treatment-related AE: anaemia (all 27 patients): 41% | treatment-related AE: epitaxis (all 27 patients): 48% | treatment-related AE: fatigue (all 27 patients): 48% | changes in coagulation parameters (all doses): No significant changes | patients withdrew from treatment due to AEs (all doses, 27 patients): 15% | patients withdrew from treatment due to death (all doses, 27 patients): 4% | patients withdrew from treatment due to dose-limiting toxicities (DLTs) (all doses, 27 patients): 4% | mean prothrombin time (by the end of the study (n=17), baseline 11.5 seconds (n=18)): 11.7 s | mean activated partial thromboplastin time (by the end of the study (n=23), baseline 28.2 seconds (n=25)): 27.1 s
